Reference: patent US20170009259A1 (SUMITOMO RUBBER INDUSTRIES, published 2017)

T1: Hevea rubber transferase 2 (HRT2), cis-prenyltransferase from Hevea brasiliensis (Hevea brasiliensis, UniProt Q8W3U4 1-284)
T1 construct: In the yeast two-hybrid assay it was expressed from the pPR3-N prey vector (pPR-HRT2) or the pBT3-SUC bait vector (pBT-HRT2); also called CPT; pPR-HRT2
T1 sequence: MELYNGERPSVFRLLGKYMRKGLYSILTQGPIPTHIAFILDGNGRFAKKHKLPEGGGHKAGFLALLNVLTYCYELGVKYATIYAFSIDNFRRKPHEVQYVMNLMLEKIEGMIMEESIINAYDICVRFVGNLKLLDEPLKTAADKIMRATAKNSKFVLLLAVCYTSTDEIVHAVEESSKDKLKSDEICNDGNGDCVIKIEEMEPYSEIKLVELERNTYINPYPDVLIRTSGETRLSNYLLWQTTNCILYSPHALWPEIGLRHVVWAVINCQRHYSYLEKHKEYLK

B1: Hevea rubber transferase 1 (HRT1), cis-prenyltransferase from Hevea brasiliensis (enzyme)
chain: MELYNGERPSVFRLLGKYMRKGLYSILTQGPIPTHIAFILDGNRRFAKKHKLPEGGGHKAGFLALLNVLTYCYELGVKYATIYAFSIDNFRRKPHEVQYVMDLMLEKIEGMIMEESIINAYDICVRFVGNLKLLSEPVKTAADKIMRATANNSKCVLLIAVCYTSTDEIVHAVEESSELNSNEVCNNQELEEANATGSGTVIQIENMESYSGIKLVDLEKNTYINPYPDVLIRTSGETRLSNYLLWQTTNCILYSPHALWPEIGLRHVVWAVINFQRHYSYLEKHKEYLK
notes: In the yeast two-hybrid assay it was expressed from the pPR3-N prey vector (pPR-HRT1) or the pBT3-SUC bait vector (pBT-HRT1); also called CPT; pPR-HRT1
B2: Nogo-B receptor (NgBr) from Hevea brasiliensis (receptor)
chain: MDLKPGAGGQRVNRLVDPISYHFLQFLWRTLHLLVSLWYLQVSMVQMIEGFLISSGLVKRYGALDIDKVRYLAIVVDSEEAYQISKVIQLLKWVEDMGVKHLCLYDSKGVLKTNKKTIMESLNNAMPFEEAVEKDVLLDQKQMTVEFASSSDGKEAITRAANVLFMKYLKYAKTGVGKEEPCFTEDQMDEALKAIGYKGPEPDLLLIYGPVRCHLGFSPWRLRYTEMVHMGPLRYMNLGSLKKAIHRFTTVQQNYGT
notes: In the yeast two-hybrid assay it was expressed from the pBT3-SUC bait vector (pBT-NgBr); also called pBT-NgBr

Tests used:
[1] = target: B2; experiment: yeast two-hybrid, pPR-HRT1 prey with pBT-NgBr bait (pair No. 5), growth on Trp-, Leu-, Ade- and His-deficient SD medium
Protocol: (§1) The yeast strain NMY-51 was transformed with the collected plasmids. The PEG method was used for the double transformation of the yeast. The transformant cells were cultured at 30° C. for three days on Trp- and Leu-deficient SD medium for screening.
(§2) In this experiment, the yeast can grow on the selective medium only when a protein encoded by the gene introduced in the bait plasmid interacts with a protein encoded by the gene introduced in the prey plasmid.

[2] = target: T1, Hevea rubber transferase 2 (HRT2), …; experiment: yeast two-hybrid, pPR-HRT1 prey with pBT-HRT2 bait (pair No. 6), growth on Trp-, Leu-, Ade- and His-deficient SD medium
Protocol: as §1, §2

[3] = target: T1, Hevea rubber transferase 2 (HRT2), …; experiment: yeast two-hybrid, pPR-HRT2 prey with pBT-NgBr bait (pair No. 9), growth on Trp-, Leu-, Ade- and His-deficient SD medium
Protocol: as §1, §2

| binding result [1] | binding result [2] | binding result [3] | Binder |
| --- | --- | --- | --- |
| binds | no binding |  | B1 |
|  |  | no binding | B2 |
